Data from patent US20040072207A1 (WHITEHEAD INSTITUTE FOR BIOMEDICAL RESEARCH, published 2004).
Residue numbers refer to the chain shown, from its start.

What was measured:
[1] = target: T1, mTOR (mammalian target of rapamycin), endogenous protein of human cell lines (human, UniProt P42345 1-2549); assay: co-IP from transfected HEK293T cells, western blot (FIG. 6B, 8D)
[2] = target: T1, mTOR (mammalian target of rapamycin), …; assay: anti-HA immunoprecipitates from transfected HEK293T cells, mTOR western blot (FIG. 6B)
Description: 3 million HEK293T cells in 6-cm dishes were transfected with plasmid constructs and amounts indicated in the Figure legends using the Lipofectamine 2000 transfection reagent (Life Technology). 24 hours after DNA addition, cells were rinsed once with PBS and lysed in 300 μl of ice-cold Buffer B. Immune complexes were prepared from cleared supernatants using 3 μg polyclonal anti-myc or monoclonal anti-HA antibodies and 20 μl of a 50% slurry protein G-Sepharose. After a 3 hour incubation, immuneprecipitates were washed six times with Buffer B and twice with Wash Buffer 2. Bound proteins were eluted in 1× sample buffer, and mTOR or HA- or myc-tagged proteins were detected by immunoblotting as described (Burnett et al., PNAS 95:1432-143 (1998)).

B1: HA-raptor mut1 (194YDC196-AAA) (other, not shown: small tags and cut ends)
chain: MESEMLQSPLLGLGEEDEADLTDWNLPLAFMKKRHCEKIEGSKSLAQSWRMKDRMKTVSVALVLCLNVGVDPPDVVKTTPCARLECWIDPLSMGPQKALETIGANLQKQYENWQPRARYKQSLDPTVDEVKKLCTSLRRNAKEERVLFHYNGHGVPRPTVNGEVWVFNKNYTQYIPLSIYDLQTWMGSPSIFVAAASNAGLIVKSFKQFALQREQELEVAAINPNHPLAQMPLPPSMKNCIQLAACEATELLPMIPDLPADLFTSCLTTPIKIALRWFCMQKCVSLVPGVTLDLIEKIPGRLNDRRTPLGELNWIFTAITDTIAWNVLPRDLFQKLFRQDLLVASLFRNFLLAERIMRSYNCTPVSSPRLPPTYMHAMWQAWDLAVDICLSQLPTIIEEGTAFRHSPFFAEQLTAFQVWLTMGVENRNPPEQLPIVLQVLLSQVHRLRALDLLGRFLDLGPWAVSLALSVGIFPYVLKLLQSSARELRPLLVFIWAKILAVDSSCQADLVKDNGHKYFLSVLADPYMPAEHRTMTAFILAVIVNSYHTGQEACLQGNLIAICLEQLNDPHPLLRQWVAICLGRIWQNFDSARWCGVRDSAHEKLYSLLSDPIPEVRCAAVFALGTFVGNSAERTDHSTTIDHNVAMMLAQLVSDGSPMVRKELVVALSHLVVQYESNFCTVALQFIEEEKNYALPSPATTEGGSLTPVRDSPCTPRLRSVSSYGNIRAVATARSLNKSLQNLSLTEESGGAVAFSPGNLSTSSSASSTLGSPENEEHILSFETIDKMRRASSYSSLNSLIGVSFNSVYTQIWRVLLHLAADPYPEVSDVAMKVLNSIAYKATVNARPQRVLDTSSLTQSAPASPTNKGVHIHQAGGSPPASSTSSSSLTNDVAKQPVSRDLPSGRPGTTGPAGAQYTPHSHQFPRTRKMFDKGPEQTADDADDAAGHKSFISATVQTGFCDWSARYFAQPVMKIPEEHDLESQIRKEREWRFLRNSRVRRQAQQVIQKGITRLDDQIFLNRNPGVPSVVKFHPFTPCIAVADKDSICFWDWEKGEKLDYFHNGNPRYTRVTAMEYLNGQDCSLLLTATDDGAIRVWKNFADLEKNPEMVTAWQGLSDMLPTTRGAGMVVDWEQETGLLMSSGDVRIVRIWDTDREMKVQDIPTGADSCVTSLSCDSHRSLIVAGLGDGSIRVYDRRMALSECRVMTYREHTAWVVKASLQKRPDGHIVSVSVNGDVRIFDPRMPESVNVLQIVKGLTALDIHPQADLIACGSVNQFTAIYNSSGELINNIKYYDGFMGQRVGAISCLAFHPHWPHLAVGSNDYYISVYSVEKRVR
notes: also called mutant 1
[1]
  binding result: no binding

B2: HA-raptor mut3 (313NWIF316-AAAA) (other, not shown: small tags and cut ends)
chain: B1 chain with A194Y, A195D, A196C, N313A, W314A, I315A, F316A
[2]
  binding result: no binding

B3: HA-raptor mut 9 (1191RVYDRR1196-DAAADD) (other, not shown: small tags and cut ends)
chain: B1 chain with A194Y, A195D, A196C, R1191D, V1192A, Y1193A, D1194A, R1195D, R1196D
[2]
  binding result: no binding

B4: HA-raptor mut2 (261DLF263-AAA) (other, not shown: small tags and cut ends)
chain: B1 chain with A194Y, A195D, A196C, D261A, L262A, F263A
[2]
  binding result: no binding

B5: HA-raptor mut 7 (738SLQN741-PAAA) (other, not shown: small tags and cut ends)
chain: B1 chain with A194Y, A195D, A196C, S738P, L739A, Q740A, N741A
notes: also called mutant 7
[2]
  binding result: binds
